Measurements from patent US20240076386A1 (Pfizer, published 2024).

B1: humanized anti-E-selectin antibody 0841 (antibody, human IgG1, kappa, V domains shown)
VH: EVQLVESGGGLVQPGGSLRLSCAASGYNIRSSYMHWVRQAPGKGLEWVARIDPANGNTIYAEKFKIRFTISADNAKNSAYLQMNSLRAEDTAVYYCAMDLYSTSEYWGQGTLVTVSS
VL: DIQMTQSPSSLSASVGDRVTITCKTSQNINRYLNWYQQKPGKAPKLLIYNANSLQTGVPSRFSGSGSGTDFTLTISSLQPEDFATYFCLQDNSWPLTFGQGTKVEIKR
notes: effector-null human IgG1, kappa
B2: anti-E-selectin antibody 0164 chimera (antibody, human IgG1, kappa, V domains shown)
VH: EVQLQQSGAEFGKPGTSVKLSCKVSGYNIRSSYMHWVNQRPGKGLEWIGRIDPANGNTIYAEKFKIKAILTADSSSNTAYMQLSQLKSDDTAIYFCAMDLYSTSEYWGQGVMVTVSS
VL: DIQMTQSPSFLSASVGDRVTINCKTSQNINRYLNWYQQKLGEAPKLLIYNANSLQTGIPSRFSASGSGTDFTLTINSLQPEDVATYFCLQDNSWPLTFGSGTKLEIKR
notes: rat VH/VL on effector-null human IgG1 and human kappa

Tests used:
[1] = molecular target: T1, human E-selectin, cell-surface expressed (human, UniProt P16581 22-610); assay: cell-based or functional assay
T1 sequence: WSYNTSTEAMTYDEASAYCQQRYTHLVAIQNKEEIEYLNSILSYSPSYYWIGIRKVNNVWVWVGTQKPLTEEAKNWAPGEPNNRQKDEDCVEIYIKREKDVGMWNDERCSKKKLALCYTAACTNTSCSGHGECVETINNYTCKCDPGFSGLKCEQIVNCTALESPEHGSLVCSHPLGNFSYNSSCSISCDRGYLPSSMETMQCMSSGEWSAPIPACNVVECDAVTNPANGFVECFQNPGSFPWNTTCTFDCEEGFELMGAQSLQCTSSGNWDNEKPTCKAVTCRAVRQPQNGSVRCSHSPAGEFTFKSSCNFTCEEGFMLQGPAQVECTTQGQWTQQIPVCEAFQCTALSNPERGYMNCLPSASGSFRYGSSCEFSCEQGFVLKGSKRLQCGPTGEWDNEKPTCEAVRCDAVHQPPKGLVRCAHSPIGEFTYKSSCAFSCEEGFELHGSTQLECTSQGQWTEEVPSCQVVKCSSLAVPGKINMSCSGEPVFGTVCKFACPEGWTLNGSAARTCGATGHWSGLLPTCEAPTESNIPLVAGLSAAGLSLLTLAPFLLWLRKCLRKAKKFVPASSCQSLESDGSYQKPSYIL

[2] = molecular target: T1, human E-selectin, cell-surface expressed; assay: flow cytometry, CHO cells
Method: (§1) Cells were maintained in growth medium at 37° C., 5% CO₂ and 95% air in a humidified incubator. Methotrexate or Zeocin were removed from the medium prior to culture for experiments. CHO-E selectin cells were detached from T-150 flasks using citric saline (135 mM KCl, 15 mM sodium citrate) and immediately re-calcified with the addition of CaCl₂) to the detached cells to a final concentration of 1 mM. Growth media was immediately added to the detached cells, then centrifuged at 300×g for 5 minutes at room temperature to pellet the cells. Cells were plated into 96-well round-bottom plates in cold CHO buffer consisting of phosphate buffered saline (PBS), pH 7.4 containing bovine serum albumin (BSA; Sigma-Aldrich) at final concentration of 1%, calcium chloride at final concentration of 1 mM, and sodium azide at a final concentration of 0.1%, for 5 minutes on wet ice. After incubation, the cells were centrifuged at 300×g for 2 minutes at 4° C. to remove the buffer.
(§2) After incubation, the antibodies were removed and the cells were washed three times by centrifugation at 300×g for 1 minute at 4° C. and resuspended in cold CHO buffer. The washed cells were resuspended and incubated for 30 minutes on wet ice with 100 μL of 1:1000 dilution of APC-conjugated AffiniPure F(ab′)₂ Fragment Goat Anti-human IgG, Fcγ (Jackson Immunoresearch). The cells were washed three or four times prior to resuspension in CHO buffer for flow cytometric analysis. A Becton Dickinson LSRFortessa instrument using 640 nanometer laser line was used to acquire cell fluorescence data. Geometric mean fluorescence of cells was analyzed by FlowJo software package (FlowJo, LLC) and plotted against antibody concentration. The estimated EC₅₀ values were calculated using nonlinear regression analysis in the GraphPad Prism suite.

[3] = molecular target: T2, cynomolgus monkey E-selectin, cell-surface expressed (cynomolgus monkey, UniProt P16581 22-610 (human entry)); assay: flow cytometry, CHO cells
T2 construct: also called CHO-cynomolgus monkey E-selectin cells; cynomolgus monkey CHO-E
T2 chain: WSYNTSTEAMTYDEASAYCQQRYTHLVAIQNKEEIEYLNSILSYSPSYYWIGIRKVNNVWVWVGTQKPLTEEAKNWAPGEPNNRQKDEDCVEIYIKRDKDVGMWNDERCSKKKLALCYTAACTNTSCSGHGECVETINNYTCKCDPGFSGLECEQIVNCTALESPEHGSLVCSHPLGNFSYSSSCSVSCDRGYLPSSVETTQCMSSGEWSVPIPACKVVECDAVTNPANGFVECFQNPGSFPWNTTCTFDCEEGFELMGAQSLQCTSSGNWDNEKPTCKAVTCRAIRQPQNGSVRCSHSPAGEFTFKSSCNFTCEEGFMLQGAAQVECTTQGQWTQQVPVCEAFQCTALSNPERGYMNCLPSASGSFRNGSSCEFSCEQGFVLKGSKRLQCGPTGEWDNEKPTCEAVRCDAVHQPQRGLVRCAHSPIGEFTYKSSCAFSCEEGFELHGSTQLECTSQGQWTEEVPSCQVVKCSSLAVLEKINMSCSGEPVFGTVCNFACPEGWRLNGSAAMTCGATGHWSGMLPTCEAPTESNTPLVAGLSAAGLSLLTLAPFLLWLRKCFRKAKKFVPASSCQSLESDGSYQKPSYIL
Method: as §1, §2

[4] = molecular target: T1, human E-selectin, cell-surface expressed; assay: competition ELISA on CHO cells vs sialyl Lewis ligand-PAA-biotin/SA-HRP
Method: (§3) In a static ligand cellular adhesion assay, horse radish peroxidase (HRP) conjugated E-selectin ligand and E-selectin antibodies compete for binding to human or cynomolgus E-selectin expressed on Chinese hamster ovary (CHO) cells. The ability of anti-E-selectin antibodies to neutralize the ligand binding was assessed in a static neutralization assay using a competition enzyme-linked immunosorbent assay (ELISA) to evaluate the neutralization of the sialyl Lewis antigen to Chinese hamster ovary cells (CHO) engineered to express human or cynomolgus monkey E-selectin.
(§4) CHO cells expressing E-selectin were seeded at 12,500 cells per well into a 96 well tissue culture plate and incubated at 37° C., 5% CO₂ for 48 hours to form a confluent monolayer. Plates were subsequently washed twice with 200 μL of calcium magnesium free PBS. Anti-E-selectin antibodies, or an IgG1 isotype control, were added to the assay in the presence of a small synthetic conjugate of biotinylated, sialyl Lewis A polyacrylamide (Carbosynth LLC, OS45446) or sialyl Lewis X polyacrylamide (Glycotech, 01-045) with a streptavidin/horseradish peroxidase (100 μL total) and incubated at 37° C., 5% CO₂ for 2 hours. Plates were then washed twice with 200 μL of calcium magnesium free PBS. Following the incubation, the cells were washed twice with 200 μL of wash buffer containing 2 mM calcium chloride (50 mM TRIS [trisaminomethane], 150 mM sodium chloride; 0.05% polysorbate 20, pH 7.4; 2 mM of calcium chloride). Signal was developed by adding 100 μL of 1-Step Ultra TMB substrate (Thermo Scientific, 34028) and incubating for 30 minutes at room temperature. Reactions were stopped using 2 M of sulfuric acid and absorbance was read at 450 nm (Spectramax M5e). Data was analyzed and graphed using GraphPad Prism software (Version 8.0.2).

[5] = molecular target: T2, cynomolgus monkey E-selectin, …; assay: as above
Method: as §3, §4

Binder | neutralization under physiological flow, HL-60 cell adhesion to CHO-human E-selectin cells IC50 (nM) [1] [nM] | EC50 [2] [nM] | EC50 [3] [nM] | IC50 [4] [nM] | IC50 [5] [nM]
B1 | 4.17 | 1.62 | 1.54 | 3.81 | 1.74
B2 | 3.73 | 1.39 | 1.73 | 5.17 | 2
